In patent US20250042994A1:

Assays:
[1] = target: human CD19 on the surface of cells (human) (UniProt P15391); assay: FACS on Raji cells
[2] = target: human CD19 on the surface of cells (human) (UniProt P15391); assay: FACS on CHO-K1-human CD19-2G4
[3] = target: human CD19 on the surface of cells (human) (UniProt P15391); assay: FACS on CHO-K1-human CD19-2C8
[4] = target: human CD19 on the surface of cells (human) (UniProt P15391); assay: FACS on CHO-K1-human CD19-1C4
[5] = target: monkey CD19 on cells (monkey); assay: FACS on HEK293T-monkey CD19
[6] = target: human CD19 on the surface of cells (human) (UniProt P15391); assay: FACS on CHO-K1-human CD19-1C9
[7] = target: human CD19 on CHO-K1-human CD19 cells (human) (UniProt P15391); assay: FACS on CHO-K1-human CD19 cells
[8] = target: human CD19 on Raji cells (human) (UniProt P15391); assay: FACS on Raji cells
[9] = target: Human CD19-his protein (human) (UniProt P15391); assay: ELISA, antibody at 100 nM
[10] = target: Human CD19-his protein (human) (UniProt P15391); assay: ELISA, antibody at 0.001 nM
[11] = target: Human CD19-his protein (human) (UniProt P15391); assay: ELISA, antibody at 10 nM
[12] = target: monkey CD19 on HEK293T-monkey CD19 cells (monkey); assay: FACS on HEK293T-monkey CD19 cells
[13] = target: Human CD19-his protein (human) (UniProt P15391); assay: ELISA, antibody at 1.00 nM
[14] = target: Human CD19-his protein (human) (UniProt P15391); assay: ELISA, antibody at 0.10 nM
[15] = target: cynomolgus monkey CD19 on peripheral blood B cells (cynomolgus monkey (Macaca fascicularis)); assay: FACS, cynomolgus PBMC, CD20+ B cells
[16] = target: Human CD19-his protein (human) (UniProt P15391); assay: ELISA, antibody at 0.0001 nM
[17] = target: Human CD19-his protein (human) (UniProt P15391); assay: ELISA, antibody at 0.01 nM
[18] = target: Human CD19-his protein (human) (UniProt P15391); assay: ELISA, coated human CD19-His

Human CD19-his protein (human), sequence (P15391 20-291 limits assumed): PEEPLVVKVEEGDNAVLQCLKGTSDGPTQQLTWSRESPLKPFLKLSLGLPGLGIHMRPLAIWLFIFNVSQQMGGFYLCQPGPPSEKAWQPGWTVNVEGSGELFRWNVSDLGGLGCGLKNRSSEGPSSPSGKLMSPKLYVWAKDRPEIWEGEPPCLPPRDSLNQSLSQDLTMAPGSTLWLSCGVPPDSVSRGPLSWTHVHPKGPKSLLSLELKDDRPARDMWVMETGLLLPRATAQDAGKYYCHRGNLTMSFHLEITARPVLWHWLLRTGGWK
human CD19 on the surface of cells (human), sequence (P15391 20-556): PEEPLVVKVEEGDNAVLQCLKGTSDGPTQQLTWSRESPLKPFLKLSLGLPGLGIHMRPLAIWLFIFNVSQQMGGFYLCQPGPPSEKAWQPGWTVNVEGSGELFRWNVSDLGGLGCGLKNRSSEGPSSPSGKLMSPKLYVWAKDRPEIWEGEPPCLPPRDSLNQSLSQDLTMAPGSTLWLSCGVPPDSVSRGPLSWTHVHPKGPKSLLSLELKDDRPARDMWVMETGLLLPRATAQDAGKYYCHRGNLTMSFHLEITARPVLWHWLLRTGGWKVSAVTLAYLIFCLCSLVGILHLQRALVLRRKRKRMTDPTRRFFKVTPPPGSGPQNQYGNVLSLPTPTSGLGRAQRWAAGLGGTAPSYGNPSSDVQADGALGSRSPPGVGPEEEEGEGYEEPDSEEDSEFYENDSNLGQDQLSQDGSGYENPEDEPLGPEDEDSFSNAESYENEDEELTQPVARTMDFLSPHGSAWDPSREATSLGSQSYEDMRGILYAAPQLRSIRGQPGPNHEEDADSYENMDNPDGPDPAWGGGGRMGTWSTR
human CD19 on CHO-K1-human CD19 cells (human), sequence (P15391 20-556): as above
human CD19 on Raji cells (human), sequence (P15391 20-556): as above

IgG subtype control (antibody)
mean fluorescence intensity [1]: 72 | mean fluorescence intensity [2]: 50 | mean fluorescence intensity [3]: 50 | mean fluorescence intensity [4]: 50 | mean fluorescence intensity [5]: 62 | mean fluorescence intensity [6]: 50

anti-hel-hIgG1 (antibody)
Maximum mean fluorescence intensity [7]: 99 | Maximum mean fluorescence intensity [8]: 435 | OD450 [9]: 0.08 | OD450 [10]: 0.05 | OD450 [11]: 0.05 | Maximum mean fluorescence intensity [12]: 90 | OD450 [13]: 0.05 | OD450 [14]: 0.05 | Proportion of chimeric antibody positive cells to B cells (%) at 1 nM [15]: 1% | Proportion of chimeric antibody positive cells to B cells (%) at 10 nM [15]: 1% | Proportion of chimeric antibody positive cells to B cells (%) at 100 nM [15]: 1% | OD450 [16]: 0.04 | OD450 [17]: 0.05

anti-hel-mIgG1 (antibody)
Maximum mean fluorescence intensity [7]: 82 MFI | Maximum mean fluorescence intensity [8]: 651 MFI | OD450 at 0.0001 nM [18]: 0.09 OD450 | OD450 at 0.001 nM [18]: 0.08 OD450 | OD450 at 0.01 nM [18]: 0.08 OD450 | OD450 at 0.10 nM [18]: 0.08 OD450 | OD450 at 1.00 nM [18]: 0.08 OD450 | OD450 at 100 nM [18]: 0.17 OD450
